Source: the supplement of paper PMC9942255
Values joined by “and” are separate entries in the source; they are usually repeats but may differ in a detail not shown here. Equal entries are not always repeated.

System: Bacillus subtilis DB104 (SP-AmyQ fusion secretion)
Experiment: AmyQ secretion efficiency, weighted average sort bin (1 = best secretion, 10 = worst) (bin number (weighted average, 1-10)); higher = lower secretion efficiency
How it was run: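 B. subtilis DB104 library expressing mature AmyQ fused to designed signal peptides (amyE-integrated) was encapsulated at about 0.3 cells per ~65 nL alginate bead with fluorescein-starch, grown about 13 h at room temperature and nile red stained. Occupied beads were sorted by large-particle flow cytometry into 10 equally populated bins by green/red fluorescence ratio, and each bin's amplicons were Illumina-sequenced. Secretion score is the read-frequency-weighted average bin number, normalised to beads per bin, excluding low-abundance sequences.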

| Sequence | AmyQ secretion efficiency |
| --- | --- |
| MKNMSCKGVVSVTLFFSFLTIGPLAHAQNS | 1.49 |
| MLCVMMLLFSAIASFPVSFQAKDQ | 8.56 |
| MLKKIALTLCPAIVGSLLFFTAPKSAHVS | 5.03 |
| MKKAAAVLLSLGLVFGFSYGAGHVAETKTK | 5.95 |
| MKRLTLVCSIVFILEDLFYDLDIGTIPIQDLPVYEASAKTA | 7.06 |
| MKKWLIIAVSLAIAIVLFDDTDGEAKAAGM | 2.55 |
| MRKKRVITCVMAASLTLGSLLPAGYATAATP | 2.04 |
| MKKRKRRNFKRFIAAFLVLALMISGVPADVLAKST | 2.12 |
| MKLRKVRKGSVLSLGLLVSASPAFATSP | 4.34 |
| MKRMIVRMTLPLLIVCLAFSTSFSASARAASE | 2.38 |
| MLKKKWMVGLLAGCLAAGGFSYNFFATEN | 6.27 |
| MTKLKMLSMLTVMIASLFIFSSQILAVQY | 6.11 |
| MLCVMMLLFSAIASFPVSAQNKDQ | 6.98 |
| MRPVFPLILSAVLFLSCFFGARQTEWSASKR | 7.27 |
| MMIKQCVICLSLLVFGTTKAHAEET | 2.63 |
| MKKRLIAPKLLSAASLAFFAMSGSAQAAAY | 3.27 |
| MKKSQYFIVFICFFVLFSVHPIAAARADS | 3.7 |
| MKLAKRVSALTPSTTLAITLKAKEL | 8.05 |
| MMKKGLLAGALTATVLFGTCKDAEAASQ | 1.66 |
| MKRQSQTLSFLSIIVAYPIQTNASPM | 8.43 |
| MKRTWNVCLTALLSVLLVAGSVKRKKHAEAKKP | 7.43 |
| MKKRKRRNFKRFIAAFLVLALMISLVPADKLAKST | 4.89 |

| Sequence | AmyQ secretion efficiency |
| --- | --- |
| MKRRKRRYLLLGILCSAAVFLIGAPSRALGAEV | 1.61 |
| MRPVFPLILSAVLFLSCFFGARQTEYSASKR | 8.3 |
| MKKKQVMLALTAAAGLGLTALHSAPAKKAAPL | 5.87 |
| MKSKWMSGLLLVAVGFSFITQVMVHAGET | 6.13 |
| MKKTIMSFVAVAALSTTAFGAHASSKEI | 3.17 |
| MRKTIFAFLTGLMMFGTITAMSASPD | 5.39 |
| MMKQIITATTAVVLGSTLFAGAASAQSI | 2.49 |
| MKVLLSALLLLLFAFFTSFTLTLFEPSASGKKL | 7.36 |
| MKKLVLCVSILAVILSGVVLTQLS | 5.78 |
| MRSYIKVLTMCFLGLILFVPTALYDNS | 8.55 |
| MKVCQKSIVRSGVSLIIGTFVISVPFMANAQSD | 2.46 |
| MGGLGTLVLLLLVTGLFMSLFAVTATASAQTG | 3.36 |
| MKRKLLSSLAISALSLGLLVSAPTASFARKR | 3.11 |
| MKVLLSALLLLLFAFEPSGSGKKL | 5.88 |
| MKKKLAAGLTASAIVGTTLVVTPKEAATI | 4.56 |
| MKRIRIPMTLALGAALTIAPLSFASAASN | 1.02 |
| MGLGKKLSVAVAASFMSLSISLPGGQAAEG | 1.55 |
| MRKKTKNRLISSVRKTVVISSLLFPGAAGASSK | 4.05 |
| MAIIIAIIAAVIVIAALITFNVRNSSPG | 8.62 |
| MKKWMITIAMLILAGIALFVFISPLKWHKT | 5.74 |
| MKRIRIPMTLALGAALTIAPLVFASAEEN | 4.55 |
| MTKKAWFLPLVCVSGWLAPAASASAQTT | 2.07 |

| Sequence | AmyQ secretion efficiency |
| --- | --- |
| MKKLVLCVSILAVILSGVWLTQLS | 5.87 |
| MNLRKILLSSALSLGMLVSAAPVLWTSS | 6.71 |
| MKQIMIFLTSFMLLAMTGQTALAADE | 3.7 |
| MKRSYVSLRVWMVFLMNWVTPDRKTAAAAVY | 6.51 |
| MTKLKMLSMLRKKKRRLFIFSSQALAVQY | 6.63 |
| MKKRLIAPMLKRAASLAFFAMSGSAQAAAY | 6.4 |
| MRNLTKTSLLLAGLCQMVFVTHASAEES | 3.18 |
| MKKLLAAGIIGLLTVRKKSPSFAAEK | 8.11 |
| MKNMSCKLVVSVTLFFSFLTIGPLSHAQNS | 2.11 |
| MPYLKRVLLLLVTGLFMSLFAVTATYSAQTG | 3.91 |
| MKKKIVAGLAVSAVVGSSMAAEAKTI | 5.65 |
| MKLSVKIAGVLTVAATAKMYATAKGN | 7.17 |
| MKKRITYSTSYQQTRVAFAFTDSSKAKAAEA | 6.55 |
| MKKWMAGLFLAAAVLLCLMVPQQIQGDED | 8.35 |
| MGLGKKLSVAVAASFMSLSISLPGGPAVQAAEG | 1.61 |
| MTKKAWFLPLVCVLLISGWLAPAASASMQTT | 2.07 |
| MKKVLMAFIICLSLILSVLAAPPSGAKSESV | 3.92 |
| MKKRLIGFLVLVPALIMSGITLIEANKK | 5.85 and 6.63 and 6.16 |
| MRPVFPLILSAVLFLSCFFGARQTEKSASKR | 6.8 |
| MKKLLAAGIIGLLTVSIASPSFAASD | 2.22 |
